Measured values taken from patent US20070224188A1.

Target: biotin-labeled soluble FcRn
Test: FcRn ELISA pH 6.0

Substance | FcRn pH6.0 (% of wild type)
anti-CD20 IgG1 D270A (antibody) | 87
anti-CD20 IgG1 D270G (antibody) | 108
anti-CD20 IgG1 D270K (antibody) | 122
anti-CD20 IgG1 D280A (antibody) | 55
anti-CD20 IgG1 D280K (antibody) | 120
anti-CD20 IgG1 D376A (antibody) | 155
anti-CD20 IgG1 D376G (antibody) | 135
anti-CD20 IgG1 D376H (antibody) | 81
anti-CD20 IgG1 D376I (antibody) | 144
anti-CD20 IgG1 D376L (antibody) | 78
anti-CD20 IgG1 D376M (antibody) | 129
anti-CD20 IgG1 D376N (antibody) | 94
anti-CD20 IgG1 D376P (antibody) | 203
anti-CD20 IgG1 D376Q (antibody) | 116
anti-CD20 IgG1 D376R (antibody) | 103
anti-CD20 IgG1 D376S (antibody) | 134
anti-CD20 IgG1 E258D (antibody) | 361
anti-CD20 IgG1 E269N (antibody) | 92
anti-CD20 IgG1 E269Q (antibody) | 98
anti-CD20 IgG1 E272H (antibody) | 157
anti-CD20 IgG1 E283A (antibody) | 126
anti-CD20 IgG1 E283D (antibody) | 110

Substance | FcRn pH6.0 (% of wild type)
anti-CD20 IgG1 E283G (antibody) | 137
anti-CD20 IgG1 E283M (antibody) | 95
anti-CD20 IgG1 E283N (antibody) | 119
anti-CD20 IgG1 E283P (antibody) | 136
anti-CD20 IgG1 E283R (antibody) | 282
anti-CD20 IgG1 E293S (antibody) | 101
anti-CD20 IgG1 E293V (antibody) | 127
anti-CD20 IgG1 E318N (antibody) | 216
anti-CD20 IgG1 E318P (antibody) | 75
anti-CD20 IgG1 E380A (antibody) | 152
anti-CD20 IgG1 E380S (antibody) | 230
anti-CD20 IgG1 E382H (antibody) | 135
anti-CD20 IgG1 E382I (antibody) | 131
anti-CD20 IgG1 E382K (antibody) | 153
anti-CD20 IgG1 E382L (antibody) | 126
anti-CD20 IgG1 E382P (antibody) | 122
anti-CD20 IgG1 E382Q (antibody) | 162
anti-CD20 IgG1 E382S (antibody) | 151
anti-CD20 IgG1 E382T (antibody) | 172
anti-CD20 IgG1 E382V (antibody) | 173
anti-CD20 IgG1 E430A (antibody) | 179
anti-CD20 IgG1 E430F (antibody) | 218

Substance | FcRn pH6.0 (% of wild type)
anti-CD20 IgG1 E430H (antibody) | 192
anti-CD20 IgG1 E430I (antibody) | 308
anti-CD20 IgG1 E430L (antibody) | 242
anti-CD20 IgG1 E430N (antibody) | 171
anti-CD20 IgG1 E430P (antibody) | 86
anti-CD20 IgG1 E430W (antibody) | 11
anti-CD20 IgG1 G237R (antibody) | 56
anti-CD20 IgG1 G316F (antibody) | 34
anti-CD20 IgG1 G316K (antibody) | 131
anti-CD20 IgG1 G341E (antibody) | 50
anti-CD20 IgG1 G341F (antibody) | 52
anti-CD20 IgG1 G341H (antibody) | 65
anti-CD20 IgG1 G341I (antibody) | 36
anti-CD20 IgG1 G341N (antibody) | 53
anti-CD20 IgG1 G341R (antibody) | 78
anti-CD20 IgG1 G341S (antibody) | 55
anti-CD20 IgG1 G341V (antibody) | 69
anti-CD20 IgG1 G341W (antibody) | 76
anti-CD20 IgG1 G385E (antibody) | 98
anti-CD20 IgG1 G385P (antibody) | 101
anti-CD20 IgG1 H268E (antibody) | 126

The next lines start with the values.

FcRn pH6.0 (% of wild type) | Substance
81 | anti-CD20 IgG1 D270M (antibody)
94 | anti-CD20 IgG1 D270N (antibody)
60 | anti-CD20 IgG1 D280T (antibody)
546 | anti-CD20 IgG1 D312P (antibody)
82 | anti-CD20 IgG1 D376E (antibody)
116 | anti-CD20 IgG1 D376F (antibody)
160 | anti-CD20 IgG1 D376T (antibody)
251 | anti-CD20 IgG1 D376V (antibody)
1 | anti-CD20 IgG1 D376W (antibody)
53 | anti-CD20 IgG1 D376Y (antibody)
320 | anti-CD20 IgG1 E272K (antibody)
129 | anti-CD20 IgG1 E272L (antibody)
110 | anti-CD20 IgG1 E272N (antibody)
351 | anti-CD20 IgG1 E272R (antibody)
168 | anti-CD20 IgG1 E283F (antibody)
206 | anti-CD20 IgG1 E283H (antibody)
143 | anti-CD20 IgG1 E283I (antibody)
246 | anti-CD20 IgG1 E283K (antibody)
126 | anti-CD20 IgG1 E283L (antibody)
117 | anti-CD20 IgG1 E283Q (antibody)
143 | anti-CD20 IgG1 E283S (antibody)

FcRn pH6.0 (% of wild type) | Substance
143 | anti-CD20 IgG1 E283T (antibody)
117 | anti-CD20 IgG1 E283W (antibody)
142 | anti-CD20 IgG1 E283Y (antibody)
304 | anti-CD20 IgG1 E318T (antibody)
114 | anti-CD20 IgG1 E318V (antibody)
73 | anti-CD20 IgG1 E380D (antibody)
142 | anti-CD20 IgG1 E380N (antibody)
172 | anti-CD20 IgG1 E380T (antibody)
103 | anti-CD20 IgG1 E382A (antibody)
73 | anti-CD20 IgG1 E382D (antibody)
222 | anti-CD20 IgG1 E382F (antibody)
135 | anti-CD20 IgG1 E382M (antibody)
137 | anti-CD20 IgG1 E382N (antibody)
165 | anti-CD20 IgG1 E382R (antibody)
172 | anti-CD20 IgG1 E382W (antibody)
188 | anti-CD20 IgG1 E382Y (antibody)
44 | anti-CD20 IgG1 E430D (antibody)
131 | anti-CD20 IgG1 E430G (antibody)
131 | anti-CD20 IgG1 E430K (antibody)
195 | anti-CD20 IgG1 E430M (antibody)
320 | anti-CD20 IgG1 E430Q (antibody)

FcRn pH6.0 (% of wild type) | Substance
249 | anti-CD20 IgG1 E430R (antibody)
183 | anti-CD20 IgG1 E430S (antibody)
137 | anti-CD20 IgG1 E430T (antibody)
281 | anti-CD20 IgG1 E430V (antibody)
126 | anti-CD20 IgG1 E430Y (antibody)
158 | anti-CD20 IgG1 F423N (antibody)
88 | anti-CD20 IgG1 G236F (antibody)
101 | anti-CD20 IgG1 G236R (antibody)
76 | anti-CD20 IgG1 G236Y (antibody)
93 | anti-CD20 IgG1 G237E (antibody)
78 | anti-CD20 IgG1 G237K (antibody)
91 | anti-CD20 IgG1 G237N (antibody)
52 | anti-CD20 IgG1 G341D (antibody)
67 | anti-CD20 IgG1 G341K (antibody)
54 | anti-CD20 IgG1 G341L (antibody)
79 | anti-CD20 IgG1 G341M (antibody)
127 | anti-CD20 IgG1 G341P (antibody)
72 | anti-CD20 IgG1 G341Q (antibody)
68 | anti-CD20 IgG1 G341T (antibody)
54 | anti-CD20 IgG1 G341Y (antibody)
68 | anti-CD20 IgG1 H268D (antibody)
